Test results as given in paper doi:10.1101/2022.08.15.503920.
Where “and” joins values, the source holds several entries; their conditions need not be identical. Identical values can stand only once. Like-named read-outs stand apart in the source and are kept apart here.

What was measured:
Test in all cases: SEC-SAXS
[1] = biological target: L-lactate dehydrogenase from hog muscle (Sus scrofa) (UniProt P00339)
[2] = biological target: L-lactate dehydrogenase from hog muscle (Sus scrofa) (UniProt P00339); remark: listed apart in the source
[3] = system: P00924; conditions: other: SEC-SAXS
[4] = biological target: enolase from baker's yeast (baker's yeast) (UniProt P00924)
[5] = biological target: enolase from baker's yeast (baker's yeast) (UniProt P00924); remark: listed apart in the source

enolase from baker's yeast, sequence (P00924 whole entry): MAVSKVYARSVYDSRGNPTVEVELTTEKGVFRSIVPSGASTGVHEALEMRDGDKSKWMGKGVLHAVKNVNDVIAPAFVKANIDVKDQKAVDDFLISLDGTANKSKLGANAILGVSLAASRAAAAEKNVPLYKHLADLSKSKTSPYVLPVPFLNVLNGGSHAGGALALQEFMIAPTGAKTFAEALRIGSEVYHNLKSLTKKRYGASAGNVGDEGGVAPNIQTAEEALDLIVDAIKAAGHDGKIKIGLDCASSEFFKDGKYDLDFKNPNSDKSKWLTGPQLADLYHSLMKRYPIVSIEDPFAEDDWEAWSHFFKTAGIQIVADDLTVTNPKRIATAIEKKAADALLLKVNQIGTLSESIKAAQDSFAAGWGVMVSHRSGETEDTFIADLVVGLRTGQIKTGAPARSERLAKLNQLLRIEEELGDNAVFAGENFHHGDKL

L-lactate dehydrogenase from hog muscle (from UniProt P00339 1-332) (enzyme)
stoichiometry N [1]: 4 and 2 | stoichiometry N [2]: 4

enolase from baker's yeast
share of monomer and dimer in the main peak body at 100 MPa [3]: ∼50% monomer/dimer mixture

enolase from baker's yeast (from UniProt P00924 1-437) (enzyme)
stoichiometry N [4]: 2 | stoichiometry N [5]: 2
